Experimental data as given in publication PMC2191747 (The Journal of Experimental Medicine, 1994).

T1: human CD58 R44A (human, UniProt P19256 29-250, R44A)
T1 sequence (looked up): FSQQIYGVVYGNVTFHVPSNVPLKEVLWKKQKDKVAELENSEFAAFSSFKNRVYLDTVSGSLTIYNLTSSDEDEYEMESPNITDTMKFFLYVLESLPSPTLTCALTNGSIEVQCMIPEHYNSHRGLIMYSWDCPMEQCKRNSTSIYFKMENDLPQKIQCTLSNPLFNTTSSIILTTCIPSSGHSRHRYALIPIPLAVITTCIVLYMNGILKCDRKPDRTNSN

T2: human CD58 E76A (human, UniProt P19256 29-250, E76A)
T2 sequence (looked up): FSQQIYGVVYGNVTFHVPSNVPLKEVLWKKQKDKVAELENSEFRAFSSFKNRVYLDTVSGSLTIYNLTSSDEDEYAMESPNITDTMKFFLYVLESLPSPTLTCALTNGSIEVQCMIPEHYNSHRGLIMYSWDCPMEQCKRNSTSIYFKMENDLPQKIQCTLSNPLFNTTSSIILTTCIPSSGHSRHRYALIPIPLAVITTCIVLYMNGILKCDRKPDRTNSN

T3: human CD58 K87A (human, UniProt P19256 29-250, K87A)
T3 sequence (looked up): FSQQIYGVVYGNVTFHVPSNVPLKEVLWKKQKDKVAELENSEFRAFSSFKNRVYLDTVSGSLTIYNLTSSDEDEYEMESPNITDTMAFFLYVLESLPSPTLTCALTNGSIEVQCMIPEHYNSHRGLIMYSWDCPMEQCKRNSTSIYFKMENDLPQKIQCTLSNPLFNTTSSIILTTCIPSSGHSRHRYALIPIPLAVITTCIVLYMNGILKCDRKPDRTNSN

T4: human CD58 E25A (human, UniProt P19256 29-250, E25A)
T4 sequence (looked up): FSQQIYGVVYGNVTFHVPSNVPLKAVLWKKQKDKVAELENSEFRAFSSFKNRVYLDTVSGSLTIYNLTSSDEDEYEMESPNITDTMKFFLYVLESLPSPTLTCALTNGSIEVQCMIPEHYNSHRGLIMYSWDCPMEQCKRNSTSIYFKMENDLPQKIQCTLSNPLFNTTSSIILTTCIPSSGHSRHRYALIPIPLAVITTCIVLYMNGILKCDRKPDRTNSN

T5: human CD58 K30A (human, UniProt P19256 29-250, K30A)
T5 sequence (looked up): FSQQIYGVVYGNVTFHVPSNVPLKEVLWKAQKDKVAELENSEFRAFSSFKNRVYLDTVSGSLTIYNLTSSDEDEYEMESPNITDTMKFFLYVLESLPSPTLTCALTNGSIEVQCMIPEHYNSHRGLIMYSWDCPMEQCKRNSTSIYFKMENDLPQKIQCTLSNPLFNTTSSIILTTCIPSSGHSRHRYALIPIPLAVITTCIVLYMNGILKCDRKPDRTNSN

T6: human CD58 D33A (human, UniProt P19256 29-250, D33A)
T6 sequence (looked up): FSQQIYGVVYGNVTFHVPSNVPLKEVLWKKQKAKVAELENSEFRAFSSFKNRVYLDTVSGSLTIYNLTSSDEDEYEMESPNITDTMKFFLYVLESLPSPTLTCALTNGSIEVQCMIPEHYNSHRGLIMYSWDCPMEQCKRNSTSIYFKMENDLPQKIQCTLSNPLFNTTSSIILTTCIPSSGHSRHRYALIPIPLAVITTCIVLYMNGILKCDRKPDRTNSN

T7: human CD58 E37A (human, UniProt P19256 29-250, E37A)
T7 sequence (looked up): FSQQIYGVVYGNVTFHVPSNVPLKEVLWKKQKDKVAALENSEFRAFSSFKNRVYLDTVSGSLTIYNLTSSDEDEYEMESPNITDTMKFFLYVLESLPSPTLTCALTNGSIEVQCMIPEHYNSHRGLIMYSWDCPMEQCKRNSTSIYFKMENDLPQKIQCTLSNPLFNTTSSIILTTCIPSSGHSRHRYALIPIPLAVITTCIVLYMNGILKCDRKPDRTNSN


Columns and labels:
Assay in all cases: cell-cell adhesion assay
human CD58 K34A (human) = human CD58 K34A (human) (UniProt P19256)
human CD58 R44A = target: T1, human CD58 R44A
human CD58 E76A = target: T2, human CD58 E76A
human CD58 K87A = target: T3, human CD58 K87A
human CD58 E25A = target: T4, human CD58 E25A
human CD58 K30A = target: T5, human CD58 K30A
human CD58 D33A = target: T6, human CD58 D33A
human CD58 E37A = target: T7, human CD58 E37A

Molecule | % binding relative to wtCD58 (human CD58 K34A (human)) | % binding relative to wtCD58 (human CD58 R44A) | % binding relative to wtCD58 (human CD58 E76A) | % binding relative to wtCD58 (human CD58 K87A) | % binding relative to wtCD58 (human CD58 E25A) | % binding relative to wtCD58 (human CD58 K30A) | % binding relative to wtCD58 (human CD58 D33A) | % binding relative to wtCD58 (human CD58 E37A)
human CD2 (from UniProt P06729 25-351) (receptor) | 1% |  |  |  |  |  |  | 
human CD2 (receptor, human (endogenous in Jurkat), UniProt P06729 25-351, looked up) KEITNALETWGALGQDINLDIPSFQMSDDIDDIKWEKTSDKKKIAQFRKEKETFKEKDTYKLFKNGTLKIKHLKTDDQDIYKVSIYDTKGKNVLEKIFDLKIQERVSKPKISWTCINTTLTCEVMNGTDPELNLYQDGKHLKLSQRVITHKWTTSLSAKFKCTAGNKVSKESSVEPVSCPEKGLDIYLIIGICGGGSLLMVFVALLVFYITKRKKQRSRRNDEELETRAHRVATEERGRKPHQIPASTPQNPATSQHPPPPPGHRSQAPSHRPPPPGHRVQHQPQKRPPAPSGTQVHQQKGPPLPRPRVQPKPPHGAAENSLSPSSN |  | 79% | 107% | < 30% | 68% | 64% | 26% | < 30%
